Data published in US6866854.

Molecular target: p53 (UniProt P04637)
Assay: cell-based or functional assay

Sequence of p53 (P04637 whole entry): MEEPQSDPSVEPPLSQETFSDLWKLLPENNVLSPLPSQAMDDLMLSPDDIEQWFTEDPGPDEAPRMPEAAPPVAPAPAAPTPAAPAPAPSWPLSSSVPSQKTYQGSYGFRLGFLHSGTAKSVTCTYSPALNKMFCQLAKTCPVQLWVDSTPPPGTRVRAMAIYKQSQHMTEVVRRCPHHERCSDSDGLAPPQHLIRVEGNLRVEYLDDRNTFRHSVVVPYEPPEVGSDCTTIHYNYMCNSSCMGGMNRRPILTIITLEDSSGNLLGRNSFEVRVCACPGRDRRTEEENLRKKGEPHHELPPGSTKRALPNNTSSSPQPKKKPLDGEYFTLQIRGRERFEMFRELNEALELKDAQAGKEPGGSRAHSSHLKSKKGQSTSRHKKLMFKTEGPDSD

Kaposi's sarcoma-associated herpesvirus latency-associated nuclear antigen 2 (LANA2) (from UniProt F5HIC6 1-566)
inhibition of doxorubicin-induced (endogenous p53) activation of the pG13-Luc reporter in U2OS cells: 57% | inhibition of p53 activation of the pG13-Luc reporter in SAOS-2 cells: 87% | subdiploid (apoptotic) fraction of SAOS-2 cells expressing p53 with LANA2, propidium iodide flow cytometry: 10.8%
